Measured values as given in article PMC11101554, “Pyruvate kinase 2 from Synechocystis sp. PCC 6803 increased substrate affinity via glucose-6-phosphate and ribose-5-phosphate for phosphoenolpyruvate consumption” (Plant Molecular Biology, 2024).

What was measured:
[1] = molecular target: T1, SyPyk2 (Synechocystis pyruvate kinase 2) (Synechocystis sp. PCC 6803, UniProt P73534); assay: LDH-coupled assay, NADH oxidation at […] nm; assay type: biochemical
T1 construct: gene pyk2; synthesized gene in pGEX6P-1 (BamHI-XhoI), GST fusion from E. coli BL21, GST tag cut by PreScission protease; untagged 63 kDa
T1 sequence (P73534 1-591): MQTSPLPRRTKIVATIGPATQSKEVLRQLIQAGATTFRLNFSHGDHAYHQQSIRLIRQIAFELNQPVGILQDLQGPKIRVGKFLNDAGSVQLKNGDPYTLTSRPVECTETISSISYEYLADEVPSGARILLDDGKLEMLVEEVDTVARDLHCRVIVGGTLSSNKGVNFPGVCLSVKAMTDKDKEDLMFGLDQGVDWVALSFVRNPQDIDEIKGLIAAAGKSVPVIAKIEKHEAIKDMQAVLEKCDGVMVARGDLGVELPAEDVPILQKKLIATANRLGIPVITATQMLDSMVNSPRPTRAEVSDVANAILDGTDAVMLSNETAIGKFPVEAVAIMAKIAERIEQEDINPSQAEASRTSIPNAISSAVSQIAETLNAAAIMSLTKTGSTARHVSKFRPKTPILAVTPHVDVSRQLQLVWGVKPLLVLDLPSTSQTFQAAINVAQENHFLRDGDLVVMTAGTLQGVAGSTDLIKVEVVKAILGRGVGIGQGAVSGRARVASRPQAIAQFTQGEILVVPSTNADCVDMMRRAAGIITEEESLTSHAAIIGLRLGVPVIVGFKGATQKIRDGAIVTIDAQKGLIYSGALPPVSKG

[2] = molecular target: T1, SyPyk2 (Synechocystis pyruvate kinase 2); assay: LDH-coupled assay, NADH oxidation at […] nm; assay type: biochemical; conditions: read-out: % activity at 1 mM
purified protein [3] = substrate: Nc1ncnc2c1ncn2[C@@H]1O[C@H](COP(=O)(O)OP(=O)(O)O)[C@@H](O)[C@H]1O; assay: purified protein; assay type: biochemical, Synechocystis sp. PCC 6803; conditions: 55 °C, pH 7.0 MES-NaOH, 5 mM PEP, 15 mM MgCl2, 100 mM KCl, hyperbolic
purified protein [4] = substrate: C=C(OP(=O)(O)O)C(=O)O; assay: purified protein; assay type: biochemical, Synechocystis sp. PCC 6803; conditions: 55 °C, pH 7.0 MES-NaOH, 2 mM ADP, 15 mM MgCl2, 100 mM KCl, no effector, sigmoidal (half-saturation, cooperative)

Nc1ncnc2c1ncn2[C@@H]1O[C@H](COP(=O)(O)OP(=O)(O)OP(=O)(O)O)[C@@H](O)[C@H]1O [ATP, adenosine triphosphate]
IC50 [1]: 4.1 mM

O=P(O)(O)OC[C@H]1OC(O)[C@H](O)[C@@H]1O (stereo partly drawn) [R5P, ribose-5-phosphate]
activity at 1000 µM [2]: ~150%

O=P(O)(O)OC[C@H]1OC(O)[C@H](O)[C@@H](O)[C@@H]1O (stereo partly drawn) [G6P, glucose-6-phosphate]
activity at 1000 µM [2]: ~200%

B1: SyPyk2 (Synechocystis pyruvate kinase 2) (Synechocystis sp. PCC 6803 substr. Kazusa) (protein)
chain: T1 sequence (P73534 1-591)
notes: synthesized gene in pGEX6P-1 (BamHI-XhoI), GST fusion from E. coli BL21, GST tag cut by PreScission protease; untagged 63 kDa
Km (purified protein [3]): 52.7 ± 7.6 µM
kcat (purified protein [3]): 251 ± 6 s⁻¹
kcat/Km (purified protein [3]): 4.84e+06 ± 733000 M⁻¹ s⁻¹
Km (purified protein [4]): 1530 ± 70 µM
kcat (purified protein [4]): 253 ± 11 s⁻¹
kcat/Km (purified protein [4]): 166000 ± 3000 M⁻¹ s⁻¹
